Laboratory results published in article PMC12436196.

Target: NPM1 (UniProt P06748)
Assay: Co-IP of Flag-MST4 with HA-NPM1
Conditions: reference: Flag-MST4 wild type; sites T178

Substance: MST4 (from UniProt Q9P289) Flag-MST4 T178A
- binding against the reference: weaker
